Test results: patent publication US20140242083A1 (Hoffmann-La Roche, published 2014)

T1: Cynomolgus MCSP D3 (cynomolgus, UniProt Q6UVK1 1582-2224 (human entry), limits assumed)
T1 construct: Soluble analyte in SPR
T1 chain: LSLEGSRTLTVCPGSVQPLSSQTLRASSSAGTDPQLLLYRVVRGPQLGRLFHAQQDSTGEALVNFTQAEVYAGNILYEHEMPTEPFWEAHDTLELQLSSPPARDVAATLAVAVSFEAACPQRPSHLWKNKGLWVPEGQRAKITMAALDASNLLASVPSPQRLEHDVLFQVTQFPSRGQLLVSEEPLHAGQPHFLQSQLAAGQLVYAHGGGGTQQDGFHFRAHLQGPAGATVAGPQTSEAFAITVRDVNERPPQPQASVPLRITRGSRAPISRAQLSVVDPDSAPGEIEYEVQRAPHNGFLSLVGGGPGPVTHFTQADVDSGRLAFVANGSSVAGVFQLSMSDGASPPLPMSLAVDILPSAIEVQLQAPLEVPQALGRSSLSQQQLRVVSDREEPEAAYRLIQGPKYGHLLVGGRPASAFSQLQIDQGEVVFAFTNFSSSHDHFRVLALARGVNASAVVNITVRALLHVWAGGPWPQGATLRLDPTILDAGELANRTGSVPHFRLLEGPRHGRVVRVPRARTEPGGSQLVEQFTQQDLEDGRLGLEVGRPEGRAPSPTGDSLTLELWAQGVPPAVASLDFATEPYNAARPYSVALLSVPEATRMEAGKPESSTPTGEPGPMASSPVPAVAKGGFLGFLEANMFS

T2: Human MCSP D3 (human, UniProt Q6UVK1 1582-2224)
T2 construct: Soluble analyte in SPR; The selection antigen was hu-MCSP(D3 domain)-avi-his; also called hu-MCSP(D3 domain)-avi-his
T2 sequence: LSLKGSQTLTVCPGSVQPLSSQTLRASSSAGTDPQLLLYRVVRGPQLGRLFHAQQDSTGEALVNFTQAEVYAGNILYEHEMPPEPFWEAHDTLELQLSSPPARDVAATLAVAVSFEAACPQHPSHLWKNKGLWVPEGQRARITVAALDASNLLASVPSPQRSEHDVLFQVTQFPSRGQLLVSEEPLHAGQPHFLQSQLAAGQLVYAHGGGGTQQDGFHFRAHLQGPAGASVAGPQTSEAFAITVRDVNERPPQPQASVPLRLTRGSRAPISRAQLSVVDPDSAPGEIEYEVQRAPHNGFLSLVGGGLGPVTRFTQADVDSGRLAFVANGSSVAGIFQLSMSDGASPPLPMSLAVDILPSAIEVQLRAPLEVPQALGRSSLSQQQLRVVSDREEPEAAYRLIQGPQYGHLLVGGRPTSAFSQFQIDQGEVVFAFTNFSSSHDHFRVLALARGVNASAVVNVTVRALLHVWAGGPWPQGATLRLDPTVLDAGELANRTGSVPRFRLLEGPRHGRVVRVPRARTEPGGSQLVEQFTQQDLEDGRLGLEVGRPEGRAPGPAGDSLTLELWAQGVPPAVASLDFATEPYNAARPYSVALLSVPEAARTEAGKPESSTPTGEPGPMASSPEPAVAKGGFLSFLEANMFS


Key:
Cynomolgus MCSP D3 = molecular target: T1, Cynomolgus MCSP D3; assay: SPR Biacore T200, 25 C, IgG captured on anti-human Fab, MCSP D3 as analyte, 1:1 Langmuir fit
Protocol: (§1) IgGs were captured on a CM5 sensorchip surface with immobilized anti human Fab. Capture IgG was coupled to the sensorchip surface by direct immobilization of around 10,000 resonance units (RU) at pH 5.0 using the standard amine coupling kit (Biacore, Freiburg/Germany). IgGs are captured for 60 s at 30 nM with 10 μl/min. Human and cynomolgus MCSP D3 were passed at a concentration of 0.49-1000 nM with a flowrate of 30 μl/min through the flow cells over 180 s. The dissociation is monitored for 210 s. Bulk refractive index differences were corrected for by subtracting the response obtained on reference flow cell. Here, the antigens were flown over a surface with immobilized anti-human Fab antibody but on which HBS-EP has been injected rather than anti MCSP IgGs.

Human MCSP D3 = molecular target: T2, Human MCSP D3; assay: as above
Protocol: as §1

| Binder | Kd (Cynomolgus MCSP D3) [nM] | Kd (Human MCSP D3) [nM] |
| --- | --- | --- |
| M4-3 ML2 (parental) (antibody, human IgG1, kappa, V domains shown, Non-matured parental humanized IgG; also called humanized antibody M4-3 ML2) VH: QVQLQESGPGLVKPSQTLSLTCTVSGGSITSGYYWNWIRQHPGKGLEWIGYITYDGSNNYNPSLKSRVTISRDTSKNQFSLKLSSVTAADTAVYYCADFDYWGQGTLVTVSS VL: DIQMTQSPSSLSASVGDRVTITCRASQGIRNYLNWYQQKPGKAPKLLIYYTSSLHSGVPSRFSGSGSGTDFTLTISSLQPEDFATYYCQQYSKLPWTFGQGTKVEIKR | 82.5 | 24.2 |
| M4-3 (C1) ML2 (antibody, human IgG1, V domains shown) VH: QVQLQESGPGLVKPSQTLSLTCTVSGGSITSGYYWNWIRQHPGKGLEWIGYITFDGSNNYNPSLKSRVTISRDTSKNQFSLKLSSVTAADTAVYYCADFDYWGQGTLVTVSS VL: DIQMTQSPSSLSASVGDRVTITCRASQGIRNYLNWYQQKPGKAPKLLIYYTSSLHSGVPSRFSGSGSGTDFTLTISSLQPEDFATYYCQQYSKLPWTFGQGTKVEIK | 9.8 | 7.2 |
| M4-3 (D6) ML2 (antibody, human IgG1, V domains shown) VH: QVQLQESGPGLVKPSQTLSLTCTVSGGSITSGYYWNWIRQHPGKGLEWIGYITFDGKNNYNPSLKSRVTISRDTSKNQFSLKLSSVTAADTAVYYCADFDYWGQGTLVTVSS VL: DIQMTQSPSSLSASVGDRVTITCRASQGIRNYLNWYQQKPGKAPKLLIYYTSSLHSGVPSRFSGSGSGTDFTLTISSLQPEDFATYYCQQYSKLPWTFGQGTKVEIK | 24.6 | 15.1 |
| M4-3 (C1) ML2 (C5) (antibody, human IgG1, V domains shown) VH: QVQLQESGPGLVKPSQTLSLTCTVSGGSITSGYYWNWIRQHPGKGLEWIGYITFDGSNNYNPSLKSRVTISRDTSKNQFSLKLSSVTAADTAVYYCADFDYWGQGTLVTVSS VL: DIQMTQSPSSLSASVGDRVTITCRASRGIREYLNWYQQKPGKAPKLLIYYTGSLHSGVPSRFSGSGSGTDFTLTISSLQPEDFATYYCQQYSELPWTFGQGTKVEIK | 0.12 | 0.003 |
| M4-3 (B7) ML2 (antibody, human IgG1, V domains shown) VH: QVQLQESGPGLVKPSQTLSLTCTVSGGSITSGYYWNWIRQHPGKGLEWIGYITFDGINNYNPSLKSRVTISRDTSKNQFSLKLSSVTAADTAVYYCADFDYWGQGTLVTVSS VL: DIQMTQSPSSLSASVGDRVTITCRASQGIRNYLNWYQQKPGKAPKLLIYYTSSLHSGVPSRFSGSGSGTDFTLTISSLQPEDFATYYCQQYSKLPWTFGQGTKVEIK | 9.9 | 12.6 |
| M4-3 (A7) ML2 (C5) (antibody, human IgG1, V domains shown) VH: QVQLQESGPGLVKPSQTLSLTCTVSGGSITDGYYWNWIRQHPGKGLEWIGYITFDGRNNYNPSLKSRVTISRDTSKNQFSLKLSSVTAADTAVYYCADFDYWGQGTLVTVSS VL: DIQMTQSPSSLSASVGDRVTITCRASRGIREYLNWYQQKPGKAPKLLIYYTGSLHSGVPSRFSGSGSGTDFTLTISSLQPEDFATYYCQQYSELPWTFGQGTKVEIK | 1.1 | 0.002 |
| M4-3 ML2 (C5) (antibody, human IgG1, V domains shown) VH: QVQLQESGPGLVKPSQTLSLTCTVSGGSITSGYYWNWIRQHPGKGLEWIGYITYDGSNNYNPSLKSRVTISRDTSKNQFSLKLSSVTAADTAVYYCADFDYWGQGTLVTVSS VL: DIQMTQSPSSLSASVGDRVTITCRASRGIREYLNWYQQKPGKAPKLLIYYTGSLHSGVPSRFSGSGSGTDFTLTISSLQPEDFATYYCQQYSELPWTFGQGTKVEIK | 5.7 | 0.8 |
| M4-3 (B8) ML2 (antibody, human IgG1, V domains shown) VH: QVQLQESGPGLVKPSQTLSLTCTVSGGSITSGYYWNWIRQHPGKGLEWIGYITFDGRNNYNPSLKSRVTISRDTSKNQFSLKLSSVTAADTAVYYCADFDYWGQGTLVTVSS VL: DIQMTQSPSSLSASVGDRVTITCRASQGIRNYLNWYQQKPGKAPKLLIYYTSSLHSGVPSRFSGSGSGTDFTLTISSLQPEDFATYYCQQYSKLPWTFGQGTKVEIK | 28.8 | 19.2 |
| M4-3 ML2 (C5/G3) (antibody, human IgG1, V domains shown) VH: QVQLQESGPGLVKPSQTLSLTCTVSGGSITSGYYWNWIRQHPGKGLEWIGYITYDGSNNYNPSLKSRVTISRDTSKNQFSLKLSSVTAADTAVYYCADFDYWGQGTLVTVSS VL: DIQMTQSPSSLSASVGDRVTITCRASRGIREYLNWYQQKPGKAPKLLIYYTGSLHSGVPSRFSGSGSGTDFTLTISSLQPEDFATYYCQQYSALPWTFGQGTKVEIK | 12.8 | 4.2 |
| M4-3 (C1) ML2 (E10) (antibody, human IgG1, V domains shown) VH: QVQLQESGPGLVKPSQTLSLTCTVSGGSITSGYYWNWIRQHPGKGLEWIGYITFDGSNNYNPSLKSRVTISRDTSKNQFSLKLSSVTAADTAVYYCADFDYWGQGTLVTVSS VL: DIQMTQSPSSLSASVGDRVTITCRASYGIRGYLNWYQQKPGKAPKLLIYYTSSLHSGVPSRFSGSGSGTDFTLTISSLQPEDFATYHCQQYSKLPWTFGQGTKVEIK | 4.5 | 3.9 |
| M4-3 (A7) ML2 (E10) (antibody, human IgG1, V domains shown) VH: QVQLQESGPGLVKPSQTLSLTCTVSGGSITDGYYWNWIRQHPGKGLEWIGYITFDGRNNYNPSLKSRVTISRDTSKNQFSLKLSSVTAADTAVYYCADFDYWGQGTLVTVSS VL: DIQMTQSPSSLSASVGDRVTITCRASYGIRGYLNWYQQKPGKAPKLLIYYTSSLHSGVPSRFSGSGSGTDFTLTISSLQPEDFATYHCQQYSKLPWTFGQGTKVEIK | 8.5 | 3.1 |
| M4-3 (C1) ML2 (G3) (antibody, human IgG1, kappa, V domains shown) VH: QVQLQESGPGLVKPSQTLSLTCTVSGGSITSGYYWNWIRQHPGKGLEWIGYITFDGSNNYNPSLKSRVTISRDTSKNQFSLKLSSVTAADTAVYYCADFDYWGQGTLVTVSS VL: DIQMTQSPSSLSASVGDRVTITCRASQGIRNYLNWYQQKPGKAPKLLIYYTSSLHSGVPSRFSGSGSGTDYTLTISSLQPEDFATYYCQQYSALPWTFGQGTKVEIKR | 1.3 | 1.6 |
| M4-3 (A7) ML2 (antibody, human IgG1, V domains shown) VH: QVQLQESGPGLVKPSQTLSLTCTVSGGSITDGYYWNWIRQHPGKGLEWIGYITFDGRNNYNPSLKSRVTISRDTSKNQFSLKLSSVTAADTAVYYCADFDYWGQGTLVTVSS VL: DIQMTQSPSSLSASVGDRVTITCRASQGIRNYLNWYQQKPGKAPKLLIYYTSSLHSGVPSRFSGSGSGTDFTLTISSLQPEDFATYYCQQYSKLPWTFGQGTKVEIK | 16.3 | 7.1 |
| M4-3 ML2 (E10/G3) (antibody, human IgG1, V domains shown) VH: QVQLQESGPGLVKPSQTLSLTCTVSGGSITSGYYWNWIRQHPGKGLEWIGYITYDGSNNYNPSLKSRVTISRDTSKNQFSLKLSSVTAADTAVYYCADFDYWGQGTLVTVSS VL: DIQMTQSPSSLSASVGDRVTITCRASYGIRGYLNWYQQKPGKAPKLLIYYTSSLHSGVPSRFSGSGSGTDFTLTISSLQPEDFATYHCQQYSALPWTFGQGTKVEIK | 12.2 | 5.5 |
| M4-3 ML2 (E10) (antibody, human IgG1, V domains shown) VH: QVQLQESGPGLVKPSQTLSLTCTVSGGSITSGYYWNWIRQHPGKGLEWIGYITYDGSNNYNPSLKSRVTISRDTSKNQFSLKLSSVTAADTAVYYCADFDYWGQGTLVTVSS VL: DIQMTQSPSSLSASVGDRVTITCRASYGIRGYLNWYQQKPGKAPKLLIYYTSSLHSGVPSRFSGSGSGTDFTLTISSLQPEDFATYHCQQYSKLPWTFGQGTKVEIK | 62.8 | 21.4 |
| M4-3 (A7) ML2 (G3) (antibody, human IgG1, V domains shown) VH: QVQLQESGPGLVKPSQTLSLTCTVSGGSITDGYYWNWIRQHPGKGLEWIGYITFDGRNNYNPSLKSRVTISRDTSKNQFSLKLSSVTAADTAVYYCADFDYWGQGTLVTVSS VL: DIQMTQSPSSLSASVGDRVTITCRASQGIRNYLNWYQQKPGKAPKLLIYYTSSLHSGVPSRFSGSGSGTDYTLTISSLQPEDFATYYCQQYSALPWTFGQGTKVEIK | 1.5 | 0.009 |
